Measured values as given in publication PMC11087588, “Genetic and functional diversity of β-N-acetylgalactosamine-targeting glycosidases expanded by deep-sea metagenome analysis” (Nature Communications, 2024).

Columns and labels:
NgaLy [1] = target: T1, NgaLy (Lacticaseibacillus yichunensis, UniProt A0ABW4CMK8, Y392A); assay: relative activity versus wild type; assay type: biochemical; settings: substrate taken from the standard assay (Assay I)
T1 construct: gene ACFQ47_05640; synthetic gene, pET-47b(+), E. coli BL21 Star (DE3); His tag cut with HRV3C; monomer; DE motif D327/E328
T1 sequence (A0ABW4CMK8 entry or part of it Y392A): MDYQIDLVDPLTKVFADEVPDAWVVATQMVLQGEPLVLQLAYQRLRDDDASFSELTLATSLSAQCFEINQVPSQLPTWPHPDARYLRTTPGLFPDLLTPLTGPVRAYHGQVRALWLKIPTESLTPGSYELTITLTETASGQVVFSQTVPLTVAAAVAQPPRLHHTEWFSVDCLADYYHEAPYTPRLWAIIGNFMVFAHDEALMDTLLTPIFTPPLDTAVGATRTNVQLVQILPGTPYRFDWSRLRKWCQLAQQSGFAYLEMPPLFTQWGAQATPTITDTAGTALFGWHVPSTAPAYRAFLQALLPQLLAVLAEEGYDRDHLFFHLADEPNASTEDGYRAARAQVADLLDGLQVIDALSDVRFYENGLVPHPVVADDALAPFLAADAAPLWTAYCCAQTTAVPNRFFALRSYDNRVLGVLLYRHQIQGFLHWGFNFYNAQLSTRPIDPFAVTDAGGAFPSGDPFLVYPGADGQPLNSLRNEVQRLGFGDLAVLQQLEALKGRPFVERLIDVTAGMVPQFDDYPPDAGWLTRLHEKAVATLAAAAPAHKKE

NgaLy [2] = target: T2, NgaLy (Lacticaseibacillus yichunensis, UniProt A0ABW4CMK8, W431A); assay: relative activity versus wild type; assay type: biochemical; settings: substrate taken from the standard assay (Assay I)
T2 construct: gene ACFQ47_05640; synthetic gene, pET-47b(+), E. coli BL21 Star (DE3); His tag cut with HRV3C; monomer; DE motif D327/E328
T2 sequence (A0ABW4CMK8 entry or part of it W431A): as the sequence (A0ABW4CMK8 entry or part of it Y392A) above, with A392Y, W431A counted along it

purified protein [3] = substrate: CC(=O)N[C@H]1[C@H](Oc2ccc([N+](=O)[O-])cc2)O[C@H](CO)[C@H](O)[C@@H]1O; assay: purified protein; assay type: biochemical, Arabidopsis thaliana; settings: citrate pH 5.0, 40 °C (optimum), apparent, not saturated up to 2 mM
purified protein [4] = substrate: CC(=O)N[C@H]1[C@H](Oc2ccc([N+](=O)[O-])cc2)O[C@H](CO)[C@H](O)[C@@H]1O[C@@H]1O[C@H](CO)[C@H](O)[C@H](O)[C@H]1O; assay: purified protein; assay type: biochemical, Cohnella abietis; settings: citrate pH 5.0, 25 °C (optimum), apparent, not saturated up to 2 mM
purified protein [5] = substrate: CC(=O)N[C@H]1[C@H](Oc2ccc([N+](=O)[O-])cc2)O[C@H](CO)[C@H](O)[C@@H]1O; assay: purified protein; assay type: biochemical, Lacticaseibacillus yichunensis; settings: HEPES pH 7.0, 40 °C (optimum), apparent, not saturated up to 2 mM
purified protein [6] = substrate: CC(=O)N[C@H]1[C@H](Oc2ccc([N+](=O)[O-])cc2)O[C@H](CO)[C@H](O)[C@@H]1O; assay: purified protein; assay type: biochemical, Brachybacterium faecium; settings: citrate pH 6.5, 35 °C (optimum), apparent, not saturated up to 2 mM
purified protein [7] = substrate: CC(=O)N[C@H]1[C@H](Oc2ccc([N+](=O)[O-])cc2)O[C@H](CO)[C@H](O)[C@@H]1O; assay: purified protein; assay type: biochemical, Paenibacillus sp. TS12; settings: citrate pH 5.5, 40 °C (optimum), apparent, not saturated up to 2 mM
purified protein [8] = substrate: CC(=O)N[C@H]1[C@H](Oc2ccc([N+](=O)[O-])cc2)O[C@H](CO)[C@H](O)[C@@H]1O; assay: purified protein; assay type: biochemical, Bathyarchaeia (SeqCode); settings: citrate pH 6.5, 70 °C (optimum), apparent, not saturated up to 2 mM

Molecule: CC(=O)N[C@H]1[C@H](Oc2ccc([N+](=O)[O-])cc2)O[C@H](CO)[C@H](O)[C@@H]1O [GalNAc-β-pNP]
- relative activity versus wild type (NgaLy [1]): The Y392A and W431A mutants were purified as soluble enzymes
- relative activity versus wild type (NgaLy [2]): The Y392A and W431A mutants were purified as soluble enzymes

B1: NgaAt (Arabidopsis thaliana) (protein)
chain: MDNNVSQEMTVPVEGVAGGGTAYGFNDAEPLKQSTDPSEVPTADLVNVWCMPNTVNVGSQETPRALEPINLLAARNERESFQIAMRPKVSWAASSPSGIVQVQCSDLCSSAGDRLVVGQSLKLRRVVPVLGVPDALVPLDLPVSQLSLFPGETSVIWVSIDVPTGQPPGQYEGEIIISAMKTDGGGSSHLAKHEKDQLCVELNTCLDIMEPIEGKPMDEVVERIKCASSSLRRILFSPSFSEFISTNGSTDMMEEDVVSNLSLRIKLRLTVWEFIIPVTPSLPAVIGVSDTVIEDRFAVEHGSEDWYKKLDLHFKWLLQYRISPYFCKWGESMRVLTYTSPWPADHPKSDEYLSDSRLAAYAVPYRQVIAGDDSRESYLRKEVEILRSKPHWNKAYFYLWDEPLNMEHFDNVRKMASEIYAYAPDSRVLTTYYCGPGDAPLAPTPFESFVKVPNLLRPYTQIYCTSEWVLGNREDLVKDILDELQTENGEEWWTYICLGPSDPHPNWHLGMRGTQQRAVMWRVWKEGGTGFLYWGANCYEKATVPSAEVKFRRGLPPGDGVLYYPGEVFSSSSEPVASLRLERLLSGLQDYEYLKLYESKYGREEAMGLLEKTGVYTGPERYTLEHRPIDVLRGEVYNTCRPS
notes: synthetic gene, pET-47b(+), E. coli BL21 Star (DE3); His tag cut with HRV3C; monomer; extra N-terminal domain of ~80 residues disordered in crystal
- Km (purified protein [3]): 12000 ± 5000 µM
- kcat (purified protein [3]): 8 ± 3 s⁻¹

B2: NgaCa (Cohnella abietis) (protein)
chain: MANTQKTLSLSVWTASSQERVRQDDPAGESLNIELFAARGEYESFQVALKAPEGEHRNVHFVVSDLKGTGDSFISKSNLTLYREHYVYISESSPQRGTVLPEGPGWYPDALIPFIDPATNEPPSGGELIAVPFALENNSNQVIWVDIQVPRDAEAGHYSGSYIVSSEHGEVTGQISLTVWNFELPLKPSLKSTFLIWSSRKKSTVEELLKHKLMCQQWNLSEEEKGAAPTSEGEWIEKYGVNCSGLGFWSKADTFNGVMPPPPTVEEIQAAASAHPSNLFLYNYTADEIGHYTSLYEPIKAWARNLHEAGVANLITMAPVPELYDDGSGSGRSAVDIWVILPLQYDKDRIQEVLAKGDEVWSYNCCVQDDYSPKWQIDFNPIEYRIQPGFINQSLGMTGILYWRVDFWTEDPWHDVLTLRADGMEFNGEGMLVYPGEQVGIDGVVPSIRLKAIRKGIEDYEYIEILKNLGHEQWALEISQSVGPDWHNWTKDHHKLEWARKQLGERINDLMTK
notes: synthetic gene, pET-47b(+), E. coli BL21 Star (DE3); His tag cut with HRV3C; monomer
- Km (purified protein [4]): 11000 ± 3000 µM
- kcat (purified protein [4]): 1.2 ± 0.3 s⁻¹

B3: NgaLy (Lacticaseibacillus yichunensis) (protein)
chain: MDYQIDLVDPLTKVFADEVPDAWVVATQMVLQGEPLVLQLAYQRLRDDDASFSELTLATSLSAQCFEINQVPSQLPTWPHPDARYLRTTPGLFPDLLTPLTGPVRAYHGQVRALWLKIPTESLTPGSYELTITLTETASGQVVFSQTVPLTVAAAVAQPPRLHHTEWFSVDCLADYYHEAPYTPRLWAIIGNFMVFAHDEALMDTLLTPIFTPPLDTAVGATRTNVQLVQILPGTPYRFDWSRLRKWCQLAQQSGFAYLEMPPLFTQWGAQATPTITDTAGTALFGWHVPSTAPAYRAFLQALLPQLLAVLAEEGYDRDHLFFHLADEPNASTEDGYRAARAQVADLLDGLQVIDALSDVRFYENGLVPHPVVADDALAPFLAADAAPLWTYYCCAQTTAVPNRFFALRSYDNRVLGVLLYRHQIQGFLHWGFNFYNAQLSTRPIDPFAVTDAGGAFPSGDPFLVYPGADGQPLNSLRNEVQRLGFGDLAVLQQLEALKGRPFVERLIDVTAGMVPQFDDYPPDAGWLTRLHEKAVATLAAAAPAHKKE
notes: synthetic gene, pET-47b(+), E. coli BL21 Star (DE3); His tag cut with HRV3C; monomer; DE motif D327/E328
- Km (purified protein [5]): 1000 ± 50 µM
- kcat (purified protein [5]): 480 ± 10 s⁻¹

B4: NgaBf (Brachybacterium faecium DSM 4810) (protein)
chain: MQTVLTDSLEKVLGESAPRPAAPIGGAHASGFLGEVLSVQVALRAEEGEAPDPRSAEHAALRVRLGGEIADSARVHAVRRVPVSSPAPAEADEHYLATAPGEYPDLLEPLGGEEVRVGRGLWEALWIDVIDAPPGEHTLTLALTDTTGEQVLAEHAVQLRVHPHQLPPLSITNTHWFHADSLSTYYDVEVLSPQHWELIEAFLASAREMDVTSVLTPTWTPPLDTAEGHTRPFVQLIGIREEEGEYSFDLSALDRWLEICGRLGFTGIEIAHLFTQWGARSTPAIQVETGSGLEHRFGWHVPATSPEYRRLLEALIPVLRAHLEEHWDGQVLWHISDEPHEDQLDSYRAAKEQVADLLEGAQVVDALSSLAFAEQGVVDTPIVATSHVGPFLEAGRRPWVYYCVSQNRDVANRFIAQPSVRNRVLGRQLFAFDAPGFLHWGYNFWWAQFSLRPIDPFEETCAGGPFFGGDSFAVYPGPEGTPWLSLRHRVFAQAMADHRALTWLAELTDRPSAVALVDEGGTLTYSSFSYDVHAHLEARHAVDERIRAALAA
notes: as for B2
- Km (purified protein [6]): 1000 ± 70 µM
- kcat (purified protein [6]): 170 ± 5 s⁻¹

B5: NgaP2 (Paenibacillus sp. TS12) (protein)
chain: LIRWSQVDEEGDTIMLEELPDFETRCLSSLSKVFADAELHDLPVNTGSAMWKEVFSFQVAYRSPQLIKSLKISAESELEPYLAIRAVGLSPSELPVFPNPDEGYIRTAPGLYPDPLYPLADGVHAVPNQWRSVWVTVSLPSMSEFIPAADIGAESVSFPIDLCFEDGKGNHLGAEKFALEIIFQELPEQTLLHTEWFHSDCIATQYKVEVFSEAHWKLIESYVHNAVNHGVNMLLTPLFTPPLDTYVGGERPTVQLIDVEITGVNEYRFKFDRLERWVEMCQRLGIQFIEFSHLFTQWGAKYAPKIIAKKDGEEKRIFGWDTEASGESYSLFLDQFLPQLVHFIRNHHLDDKVFFHVSDEPGMKHAESYRQASDILNKHLAGFSILDALSDYDFYEKGLVQIPVPSNDQIEPFIEHGVEPLWTYYCCGQDHHVSNRFFSLSSPRNRVLGAQLYKFGVQGFLHWGFNFWYSQYSKKVIDPFKVTDADCAFPSGDPFVVYPGADGPLDSIRWEVFREGLQDLRALKLLEALAGREKTLALLEQNLREELTFKSFPDDIEWLLSTREKINRAIKDAYRADR
notes: cloned from genomic DNA, pET-47b(+), E. coli BL21 Star (DE3); His tag cut with HRV3C; monomer; not the GH123 NgaP of the same strain
- Km (purified protein [7]): 360 ± 30 µM
- kcat (purified protein [7]): 28 ± 0.6 s⁻¹

B6: NgaBa (Bathyarchaeia (SeqCode)) (protein)
chain: MSRFDVWVQDSLTKVFRDSPKPEDAIKDVVLDAVRNEYEAAQIVVHPLEDVERLEVRVTSLRHESDEYAITRVYPRFVGYVPVKRNTPDTPPEELVRKAPGMFPDPLLEEETVRVKKGENQPVWLTVYVPKDAPPGTYHGEVLIRADGDETRVKTCLRVHDVILPDERNLKLSNFLSPHNISKFHGVELWSEDFWRLLKAYARNMAEHRQSSIITPILELTRIYKGDDRLEFDFRLLDRWINLFKEEGVIGTVEGGYLAGRPPRTVEGWWTVSEFLSRRYRVFNKDGSLAYVQEPVKVSSPVFEEFISQFMPALQAHLDELGLLDSYVQHLADEPIDANAESYKHIAGLVRKYAPKIRIIEASTCKRLVDYIDVLVPLLDDYDKNMSFYEERKRRGNEVWFYTCLAPTGRYPNRLIDYSLVKVRILHWINFKYGLVGYLHWGYNYWTEKPFEDVENEPSHPFPLPPGDPFIVYPGKSGPLDSIRFEALRDGVEDYELFKLLAERKGLDEAVGLCSLAVKTITDYVRSSGELLSIRLRLINELESLG
notes: as for B2
- Km (purified protein [8]): 3900 ± 1000 µM
- kcat (purified protein [8]): 510 ± 50 s⁻¹
